US20190276521A1 (Kyowa Kirin, published 2019)
Residue numbers refer to the chain shown, from its start.

T1: human haptoglobin (human Hp) (human, UniProt P00738 19-160; P00738 162-406)
T1 sequence 1: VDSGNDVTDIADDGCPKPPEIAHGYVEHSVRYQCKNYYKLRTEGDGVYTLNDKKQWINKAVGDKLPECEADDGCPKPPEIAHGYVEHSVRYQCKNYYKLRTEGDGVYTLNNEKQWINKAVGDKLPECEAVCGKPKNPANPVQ
T1 sequence 2: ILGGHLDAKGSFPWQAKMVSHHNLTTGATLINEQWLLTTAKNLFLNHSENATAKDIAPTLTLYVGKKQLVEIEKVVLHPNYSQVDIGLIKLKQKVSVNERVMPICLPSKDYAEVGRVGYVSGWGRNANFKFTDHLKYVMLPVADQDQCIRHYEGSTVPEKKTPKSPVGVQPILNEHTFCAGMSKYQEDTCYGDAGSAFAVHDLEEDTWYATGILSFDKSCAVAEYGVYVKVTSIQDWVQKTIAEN

T2: Chimera F (human with bovine residues, UniProt P00738 19-406)
T2 construct: Expi293F; also called human Hp/bovine Hp chimeric protein
T2 chain: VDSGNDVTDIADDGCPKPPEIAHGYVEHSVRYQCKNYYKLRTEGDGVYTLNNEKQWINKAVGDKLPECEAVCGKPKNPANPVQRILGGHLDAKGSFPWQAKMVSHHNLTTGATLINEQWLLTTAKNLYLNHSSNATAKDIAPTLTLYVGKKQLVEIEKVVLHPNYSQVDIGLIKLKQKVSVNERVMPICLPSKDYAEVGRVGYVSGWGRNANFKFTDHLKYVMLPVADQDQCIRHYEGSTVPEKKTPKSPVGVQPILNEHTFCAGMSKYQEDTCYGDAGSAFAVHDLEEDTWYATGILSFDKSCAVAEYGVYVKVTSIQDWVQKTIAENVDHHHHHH

T3: Chimera A (human with bovine residues, UniProt P00738 19-406)
T3 construct: α and β linked by a disulfide bond; Expi293F; also called human Hp/bovine Hp chimeric protein
T3 chain: T2 chain with Y128F, S133E, S239V, T240D, V241A

B1: anti-Hp antibody #6 (antibody, V domains shown)
VH: EVQLLESGGGLVQPGGSLKLSCVASEFTFSNYAMSWVRQAPGKGLEWVSTFSSGGSRTFYADSVRGRFTISRDNSNNMLFLQIDSLRAEDTAVYYCAKAQFVGHWAQYNYWGQGALVTVSS
VL: DIQMTQSPSSLSASVGDRVAITCRASQGIRNYLAWYQQKPGKVPKLLIYDAFILQSGVPSRFSGSGSGTDFTLTISSLQPEDVATYYCQKSDSPPLTFGGGTKVEIK
notes: Recombinant human IgG1/kappa antibody; also called clone #6; #6 antibody
B2: anti-Hp antibody #4 (antibody, V domains shown)
VH: EVHLLESGGGLVQPGGSLRLSCQASGFTFNSNAMSWVRRAPGKGLEWISSIGANTNYIYTADSVKGRFTISRDNSKNTLYLQMNSLRAEDTAAYYCAKNRDRYSYDAWSVWGQGTTVTVSS
VL: DIQMTQSPSTLSASVGDRVTITCRASQSIDIWLAWYQQKPGKAPKLLIYEASSLESEVPSRFSGSGSGTEFTLTISSLQPDDFATYYCQAYNSNYPYAFGQGTNLEIK
notes: also called clone #4; #4 antibody
B3: anti-Hp antibody #27 (antibody, V domains shown)
VH: EQQLVESGGGLVQPGRSLTLSCVASGFTFGDYAMGWVRQAPGKGLEWVSSISSDALYKGYVDSVKGRFTVSRDNAKNSLYLQMDNLRTEDTAFYYCTKDLRSGNFGQYGDWGQGTLVTVSS
VL: AIQMTQSPSSLSASVGDRVTITCRASQGIGSDLTWYQQEPGKAPKLLIYAASTLQSGVPSRFSGGGSGTDFTLTISSLQPEDAATYYCLQSHGYPLTFGQGTKLEIK
notes: Recombinant human IgG1/kappa antibody; also called clone #27; #27 antibody
B4: anti-Hp antibody #105 (antibody, V domains shown)
VH: QVHLQQWGAGLLKPSETLSLTCNVYGSSLSQYFWNWIRQPPGKGLEWMGRITSGGSTNYNPSLESRVTIIVDTFKNQFSLKLVSVTAADTAVYYCARGPFVEGAAPTVLGTGFSIWGQGTMVTVSS
VL: EIVLTQSPGTLSLSPGERATLSCRASQSVNNNYLAWYQQKPGQAPRLLIYDASKRATGIPDRFSGSGSGTDFTLTISRLEPEDFAVYYCQQYGHSRPYTFGQGAKLEIK
notes: Recombinant human IgG1/kappa antibody
B5: anti-Hp antibody #96-6 (antibody, V domains shown)
VH: EVQLLESGGGLVQPGGSLRLSCEASGSSVSSHFMTWVRQSPGKGLEWVSSISPNPAYTYYANSVKGRFTISRDNSKNMLYLQMNDLRAEDTARYYCARRSDFDTWGQGTMLTVSS
VL: DIQMTQSPSAMSASVGDRVTITCRASRYIGKDLAWFQQKPGEVPKRLIYDASSLQSGVPSRFSGSGSGTEFTLTVSNLQPEDLGTYYCQHYYTFPLTFGPGTKVDIK
notes: Recombinant human IgG1/kappa antibody; also called clone #96-6; Labeled #96-6

What was measured:
[1] = molecular target: histidine tag-conjugated soluble CD16a (V) (human) (UniProt P08637); assay: ELISA, soluble CD16a-His captured by anti-Tetra-His antibody, anti-human IgG-HRP detection
[2] = molecular target: full-length CD16a (V) expressed on CHO/DG44 cells (human) (UniProt P08637); assay: flow cytometry competition on CD16a-expressing CHO/DG44 cells; competitor: anti-DNP antibody complexed with DNP-BSA-biotin
[3] = molecular target: T1, human haptoglobin (human Hp); assay: competitive ELISA on plate-coated human Hp (-: absorbance less than 0.5); competitor: anti-Hp polyclonal antibody
Method: The immobilized solution was removed, 1% BSA-PBS was then dispensed into the plate at 100 μL/well, and the plate was left to stand for 1 hour at room temperature for blocking and washed 3 times with PBST.
The plate was washed 3 times of PBST, and ABTS was dispensed into the plate at 50 μL/well for developing color. At a point in time when color was appropriately developed, 1% SDS was dispensed into the plate at 50 μL/well, and by using a plate reader, the absorbance at a sample wavelength of 415 nm and a reference wavelength of 490 nm was measured.

[4] = molecular target: T1, human haptoglobin (human Hp); assay: SEC-MALS of antibody 0.5 mg/mL mixed with human Hp 1.3 mg/mL, 16 hours at 37° C.
Method: In order to check whether the anti-Hp antibodies have bound to the human Hp and formed a immune complex, analysis was performed by gel filtration chromatography (Size Exclusion Chromatography, SEC) (column; BioSep SEC-s4000, 7.8×300 mm, Phenomenex Inc.) using HPLC (Prominence, Shimadzu Corporation).
The column was equilibrated using a mobile phase [50 mmol/L phosphate buffer (pH 7.0, 500 mmol/L NaCl)], the anti-Hp antibodies and the human Hp (Japan Blood Products Organization) were diluted with PBS and mixed together such that the concentrations of the anti-Hp antibodies and the human Hp became 0.5 mg/mL and 1.3 mg/mL, respectively, and the mixed solution was left to stand for 16 hours at 37° C.
The components contained in […] of the mixed solution were separated at a flow rate of 0.5 mL/min. Then, for each peak detected at a wavelength of 280 nm, a molecular weight was calculated using a maximum value of scattering intensity detected by a multi angle light scattering (MALS) detector (miniDAWN TREOS, Wyatt Technology Corporation).

Chimera F = molecular target: T2, Chimera F; assay: ELISA on plate-coated antigen (-: absorbance ratio less than 0.5)
Method: (§1) The chimeras A to F, the recombinant human Hp and bovine Hp were immobilized in a 96-well plate based on the method described in Example 5, and blocking was performed.
(§2) The plate was washed 3 times with PBST, Goat anti Human IgG (H&L)-HRP or Rabbit anti-Mouse IgG-HRP diluted with 1% BSA-PBS was dispensed into the plate at 50 μL/well, and the plate was left to stand for 1 hour at room temperature. The color development and the absorbance measurement to be carried out thereafter were performed based on the method described in Example 5. By regarding the absorbance of the well, in which each of the anti-Hp antibodies was reacted with the recombinant human Hp, as 1, a ratio of the absorbance, in which the sample was reacted, to the aforementioned absorbance was calculated.

Chimera A = molecular target: T3, Chimera A; assay: as above
Method: as §1, §2

Sequence of histidine tag-conjugated soluble CD16a (V) (human) (P08637 other isoform, or with tags, fused parts or gaps limits assumed): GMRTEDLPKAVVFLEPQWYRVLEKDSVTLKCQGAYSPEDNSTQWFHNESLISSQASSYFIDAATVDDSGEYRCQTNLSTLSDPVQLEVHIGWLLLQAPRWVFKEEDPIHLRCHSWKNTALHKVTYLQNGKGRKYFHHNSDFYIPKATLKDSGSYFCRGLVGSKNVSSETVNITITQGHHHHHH
Sequence of full-length CD16a (V) expressed on CHO/DG44 cells (human) (P08637 17-254 F176V limits assumed): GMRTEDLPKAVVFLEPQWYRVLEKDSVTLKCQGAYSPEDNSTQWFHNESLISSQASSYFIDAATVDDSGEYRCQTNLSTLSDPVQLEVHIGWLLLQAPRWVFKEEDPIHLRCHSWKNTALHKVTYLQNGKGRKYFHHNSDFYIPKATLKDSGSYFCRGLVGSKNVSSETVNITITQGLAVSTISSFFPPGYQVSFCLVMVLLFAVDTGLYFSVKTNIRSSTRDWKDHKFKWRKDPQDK

Molecule | EC50 [1] [µg/mL] | IC50 [2] [µg/mL] | absorbance (415 nm, reference 490 nm) [3] | Peak molecular weight of immune complex [4] | absorbance ratio to recombinant human Hp (Chimera F) | absorbance ratio to recombinant human Hp (Chimera A)
Intravenous immunoglobulin (IVIG) (antibody) | 1.06 | 540 | – | – | – | –
B1 | 0.805 | – | < 0.5 | – | – | –
B2 | 1.99 | – | – | 341000 | – | –
B3 | 0.763 | 238 | – | 523000 | < 0.5 | –
B4 | 0.405 | – | < 0.5 | – | – | < 0.5
B5 | 0.473 | – | < 0.5 | – | – | –
